Measurements from patent US20190125929A1.

How the values were obtained:
[1] = target: decellularized extracellular matrix derived from wild-type (WT) mouse dermal fibroblasts (mouse); assay: AFM adhesion force, vWF-conjugated 2 µm bead on decellularized ECM (n=5)
[2] = target: decellularized extracellular matrix derived from TSP2 KO mouse dermal fibroblasts (mouse); assay: as above

adhesion force [1]: 53.8 pN | adhesion force [2]: 16.5 pN
Substance: Recombinant von Willebrand Factor (vWF) (Millipore), conjugated via EDC/NHS chemistry to a 2 µm carboxylated polystyrene bead on an AFM cantilever
